The supplement of paper PMC11316812
± gives the standard deviation of the averaged measurements.

Tests used:
MCF7 = assay: percentage of EdU-negative (G0-arrested) nuclei per well, 72 h; higher = more G0 arrest; settings: reference: sequence is the full UniProt precursor, the tested protein was the secreted form or ectodomain
hTERT-HMEC = assay: as above; settings: reference: sequence is the full UniProt precursor, the tested protein was the secreted form or ectodomain
[1] = protein concentration 0.0225 µM
[2] = protein concentration 0.0171429 µM
[3] = protein concentration 0.171429 µM
[4] = protein concentration 0.020715 µM
[5] = protein concentration 0.20715 µM
[6] = protein concentration 0.0115 µM
[7] = protein concentration 0.03125 µM
[8] = protein concentration 0.3125 µM
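Also: secreted proteins added to cultured cells, EdU pulse at the end, nuclei found by Hoechst imaging, EdU status from nuclear versus surrounding ring intensity ratio, PBS as neutral control.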

## MLLEPGRGCCALAILLAIVDIQSGGCINITSSASQEGTRLNLICTVWHKKEEAEGFVVFLCKDRSGDCSPETSLKQLRLKRDPGIDGVGEISSQLMFTISQVTPLHSGTYQCCARSQKSGIRLQGHFFSILFTETGNYTVTGLKQRQHLEFSHNEGTLSSGFLQEKVWVMLVTSLVALQAL
MCF7; [1]
  percentage of EdU-negative: 24.09 ± 0.069%
MCF7; protein concentration 0.225 µM
  percentage of EdU-negative: 28.4 ± 2.2%
hTERT-HMEC; [1]
  percentage of EdU-negative: 4.71 ± 0.094%
hTERT-HMEC; protein concentration 0.225 µM
  percentage of EdU-negative: 5.62 ± 0.37%

## MLLFLLSALVLLTQPLGYLEAEMKTYSHRTMPSACTLVMCSSVESGLPGRDGRDGREGPRGEKGDPGLPGAAGQAGMPGQAGPVGPKGDNGSVGEPGPKGDTGPSGPPGPPGVPGPAGREGPLGKQGNIGPQGKPGPKGEAGPKGEVGAPGMQGSAGARGLAGPKGERGVPGERGVPGNTGAAGSAGAMGPQGSPGARGPPGLKGDKGIPGDKGAKGESGLPDVASLRQQVEALQGQVQHLQAAFSQYKKVELFPNGQSVGEKIFKTAGFVKPFTEAQLLCTQAGGQLASPRSAAENAALQQLVVAKNEAAFLSMTDSKTEGKFTYPTGESLVYSNWAPGEPNDDGGSEDCVEIFTNGKWNDRACGEKRLVVCEF
MCF7; [2]
  percentage of EdU-negative: 23.4 ± 1.8%
MCF7; [3]
  percentage of EdU-negative: 25.14 ± 0.067%
hTERT-HMEC; [2]
  percentage of EdU-negative: 4.51 ± 0.51%
hTERT-HMEC; [3]
  percentage of EdU-negative: 5.78 ± 0.29%

## MLLKTVLLLGHVAQVLMLDNGLLQTPPMGWLAWERFRCNINCDEDPKNCISEQLFMEMADRMAQDGWRDMGYTYLNIDDCWIGGRDASGRLMPDPKRFPHGIPFLADYVHSLGLKLGIYADMGNFTCMGYPGTTLDKVVQDAQTFAEWKVDMLKLDGCFSTPEERAQGYPKMAAALNATGRPIAFSCSWPAYEGGLPPRVNYSLLADICNLWRNYDDIQDSWWSVLSILNWFVEHQDILQPVAGPGHWNDPDMLLIGNFGLSLEQSRAQMALWTVLAAPLLMSTDLRTISAQNMDILQNPLMIKINQDPLGIQGRRIHKEKSLIEVYMRPLSNKASALVFFSCRTDMPYRYHSSLGQLNFTGSVIYEAQDVYSGDIISGLRDETNFTVIINPSGVVMWYLYPIKNLEMSQQ
MCF7; [4]
  percentage of EdU-negative: 27.8 ± 0.95%
MCF7; [5]
  percentage of EdU-negative: 26.5 ± 1.4%
hTERT-HMEC; [4]
  percentage of EdU-negative: 5.62 ± 0.13%
hTERT-HMEC; [5]
  percentage of EdU-negative: 6.091 ± 0.044%

## MLLLFLLFEGLCCPGENTAAPQALQSYHLAAEEQLSFRMLQTSSFANHSWAHSEGSGWLGDLQTHGWDTVLGTIRFLKPWSHGNFSKQELKNLQSLFQLYFHSFIQIVQASAGQFQLEYPFEIQILAGCRMNAPQIFLNMAYQGSDFLSFQGISWEPSPGAGIRAQNICKVLNRYLDIKEILQSLLGHTCPRFLAGLMEAGESELKRKVKPEAWLSCGPSPGPGRLQLVCHVSGFYPKPVWVMWMRGEQEQRGTQRGDVLPNADETWYLRATLDVAAGEAAGLSCRVKHSSLGGHDLIIHWGGYSIFLILICLTVIVTLVILVVVDSRLKKQSSNKNILSPHTPSPVFLMGANTQDTKNSRHQFCLAQVSWIKNRVLKKWKTRLNQLW
MCF7; [6]
  percentage of EdU-negative: 28.7 ± 2.1%
MCF7; protein concentration 0.115 µM
  percentage of EdU-negative: 26 ± 1.3%
hTERT-HMEC; [6]
  percentage of EdU-negative: 4.889 ± 0.0055%
hTERT-HMEC; protein concentration 0.115 µM
  percentage of EdU-negative: 8.22 ± 0.88%

## MLLLFSVILISWVSTVGGEGTLCDFPKIHHGFLYDEEDYNPFSQVPTGEVFYYSCEYNFVSPSKSFWTRITCTEEGWSPTPKCLRMCSFPFVKNGHSESSGLIHLEGDTVQIICNTGYSLQNNEKNISCVERGWSTPPICSFTKGECHVPILEANVDAQPKKESYKVGDVLKFSCRKNLIRVGSDSVQCYQFGWSPNFPTCKGQVRSCGPPPQLSNGEVKEIRKEEYGHNEVVEYDCNPNFIINGPKKIQCVDGEWTTLPTCVEQVKTCGYIPELEYGYVQPSVPPYQHGVSVEVNCRNEYAMIGNNMITCINGIWTELPMCVATHQLKRCKIAGVNIKTLLKLSGKEFNHNSRIRYRCSDIFRYRHSVCINGKWNPEVDCTEKREQFCPPPPQIPNAQNMTTTVNYQDGEKVAVLCKENYLLPEAKEIVCKDGRWQSLPRCVESTAYCGPPPSINNGDTTSFPLSVYPPGSTVTYRCQSFYKLQGSVTVTCRNKQWSEPPRCLDPCVVSEENMNKNNIQLKWRNDGKLYAKTGDAVEFQCKFPHKAMISSPPFRAICQEGKFEYPICE [Q9BXR6]
MCF7; protein concentration 0.024 µM
  percentage of EdU-negative: 25.7 ± 0.37%
MCF7; protein concentration 0.24 µM
  percentage of EdU-negative: 30.6 ± 1.7%
hTERT-HMEC; protein concentration 0.024 µM
  percentage of EdU-negative: 4.32 ± 0.27%
hTERT-HMEC; protein concentration 0.24 µM
  percentage of EdU-negative: 5.71 ± 1.3%

## MLLLGAVLLLLALPGHDQETTTQGPGVLLPLPKGACTGWMAGIPGHPGHNGAPGRDGRDGTPGEKGEKGDPGLIGPKGDIGETGVPGAEGPRGFPGIQGRKGEPGEGAYVYRSAFSVGLETYVTIPNMPIRFTKIFYNQQNHYDGSTGKFHCNIPGLYYFAYHITVYMKDVKVSLFKKDKAMLFTYDQYQENNVDQASGSVLLHLEVGDQVWLQVYGEGERNGLYADNDNDSTFTGFLLYHDTN
MCF7; [7]
  percentage of EdU-negative: 26.2 ± 2.3%
MCF7; [8]
  percentage of EdU-negative: 25.6 ± 1.1%
hTERT-HMEC; [7]
  percentage of EdU-negative: 5.07 ± 0.4%
hTERT-HMEC; [8]
  percentage of EdU-negative: 5.02 ± 0.22%

## MLLLINVILTLWVSCANGQEVKPCDFPEIQHGGLYYKSLRRLYFPAAAGQSYSYYCDQNFVTPSGSYWDYIHCTQDGWSPTVPCLRTCSKSDVEIENGFISESSSIYILNEETQYNCKPGYATAEGNSSGSITCLQNGWSTQPICIKFCDMPVFENSRAKSNGMWFKLHDTLDYECYDGYESSYGNTTDSIVCGEDGWSHLPTCYNSSENCGPPPPISNGDTTSFPQKVYLPWSRVEYQCQSYYELQGSKYVTCSNGDWSEPPRCISMKPCEFPEIQHGHLYYENTRRPYFPVATGQSYSYYCDQNFVTPSGSYWDYIHCTQDGWLPTVPCLRTCSKSDIEIENGFISESSSIYILNKEIQYKCKPGYATADGNSSGSITCLQNGWSAQPICIKFCDMPVFENSRAKSNGMRFKLHDTLDYECYDGYEISYGNTTGSIVCGEDGWSHFPTCYNSSEKCGPPPPISNGDTTSFLLKVYVPQSRVEYQCQSYYELQGSNYVTCSNGEWSEPPRCIHPCIITEENMNKNNIQLKGKSDIKYYAKTGDTIEFMCKLGYNANTSVLSFQAVCREGIVEYPRCE
MCF7; [1]
  percentage of EdU-negative: 24.7 ± 2.6%
MCF7; protein concentration 0.225 µM
  percentage of EdU-negative: 28.7 ± 0.4%
hTERT-HMEC; [1]
  percentage of EdU-negative: 4.84 ± 0.38%
hTERT-HMEC; protein concentration 0.225 µM
  percentage of EdU-negative: 4.68 ± 0.36%
